Measurements: paper PMC9894260 (Proceedings of the National Academy of Sciences of the …, 2022)

T1: ARPC1 (subunit of fission yeast Arp2/3 complex) (S. pombe, UniProt P78774)
T1 sequence: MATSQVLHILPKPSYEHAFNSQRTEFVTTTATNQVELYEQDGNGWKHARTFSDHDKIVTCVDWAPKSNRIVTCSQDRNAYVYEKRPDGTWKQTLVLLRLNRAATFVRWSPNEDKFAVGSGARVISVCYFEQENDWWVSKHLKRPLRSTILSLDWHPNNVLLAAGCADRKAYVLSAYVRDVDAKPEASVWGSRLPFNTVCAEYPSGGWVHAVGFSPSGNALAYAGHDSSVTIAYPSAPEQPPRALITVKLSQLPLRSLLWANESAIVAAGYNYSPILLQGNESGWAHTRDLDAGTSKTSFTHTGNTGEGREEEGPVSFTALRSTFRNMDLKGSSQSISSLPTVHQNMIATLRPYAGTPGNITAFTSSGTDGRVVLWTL

B1: ARPC2 (subunit of fission yeast Arp2/3 complex) (natural protein)
chain: MLSLDYNNIFIYELLTERFSSENPSSIDQVVTDFDGVTFHISTPEEKTKILISLSMKCYPELVNYGTLDLLKQIYGAYVHEPEMGYNFSILIDLQQLPATDEEKEQLAMSISMLKRNVLAAPFHRAFTKQAELADLARKDPENAPMLDKQATSQELMAIHYRDEETIVLWPEHDRVTVVFSTKFREETDRIFGKVFLQEFVDARRRPAIQTAPQVLFSYRDPPLEIRDIQGIQKGDDFGFVTFVLFERHFTPQNREDCISHIQVFRNTLHFHIKASKAYMHQRMRKRVADFQKVLNRAKPDVELERKTATGRSFVRA

What was measured:
Experiment in all cases: cryo-EM structure
[1] = target: Arp2 (subunit of fission yeast Arp2/3 complex) (S. pombe, UniProt Q9UUJ1)
Sequence of Arp2 (subunit of fission yeast Arp2/3 complex) (Q9UUJ1 whole entry, one chain of several): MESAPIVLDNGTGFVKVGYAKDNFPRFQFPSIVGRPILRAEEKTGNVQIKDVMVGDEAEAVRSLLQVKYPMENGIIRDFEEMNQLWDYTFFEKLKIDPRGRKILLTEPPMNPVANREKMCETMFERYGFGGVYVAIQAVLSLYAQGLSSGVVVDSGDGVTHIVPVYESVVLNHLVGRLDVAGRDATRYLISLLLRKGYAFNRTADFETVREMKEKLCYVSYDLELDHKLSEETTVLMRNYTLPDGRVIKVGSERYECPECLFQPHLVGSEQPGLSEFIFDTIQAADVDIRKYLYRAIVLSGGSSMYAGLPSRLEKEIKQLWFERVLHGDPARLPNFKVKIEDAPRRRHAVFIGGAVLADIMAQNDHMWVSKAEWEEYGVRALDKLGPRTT

[2] = target: T1, ARPC1 (subunit of fission yeast Arp2/3 …)
[3] = target: B1

Row | Binder | binding result [1] | binding result [2] | binding result [3]
1 | B1 | binds | binds | –
2 | ARPC4 (subunit of fission yeast Arp2/3 complex) (natural protein) not shown | – | binds | binds
3 | ARPC3 (subunit of fission yeast Arp2/3 complex) (natural protein) MPAYHSSFLSLTDVPTTGNIAMLPLKTKFRGPAYPADESQMDIIDECIGLFRANCFFRNFEIKGPADRTLIYGTLFISECLGRVNGLNYRDAERQLNSLALENFSIPGSAGFPLNALYAPPLSPQDAEIMRTYLTQFRQELAYRLLSHVYATEKDHPSKWWTCFSKRRFMNKAL | binds | – | –
